In the Human Domainome abundance scans (Beltran et al. 2025):
± gives the uncertainty stated by the source.

B1: Cytoplasmic polyadenylation element-binding protein 2, residues 513 to 575; numbered along this chain, Q7Z5Q1 (parent)
chain: KRVEVKPYVLDDQMCDECQGARCGGKFAPFFCANVTCLQYYCEFCWANIHSRAGREFHKPLVK

Variants of: B1
Assay: abundance fitness (aPCA) (normalised: wild type 0, dead -1); higher = more abundant; growth selection in yeast, the domain comes from the species named
Settings: Homo sapiens

Variant	abundance fitness
KRVEVKPYVLDDQMCDNCQGARCGGKFAPFFCANVTCLQYYCEFCWANIHSRAGREFHKPLVK	-0.128 ± 0.17
KRVEVKPYVLDDQMCDPCQGARCGGKFAPFFCANVTCLQYYCEFCWANIHSRAGREFHKPLVK	-0.366 ± 0.054
KRVEVKPYVLDDQMCDQCQGARCGGKFAPFFCANVTCLQYYCEFCWANIHSRAGREFHKPLVK	0.09 ± 0.059
KRVEVKPYVLDDQMCDCCQGARCGGKFAPFFCANVTCLQYYCEFCWANIHSRAGREFHKPLVK	-0.006 ± 0.08
KRVEVKPYVLDDQMCDDCQGARCGGKFAPFFCANVTCLQYYCEFCWANIHSRAGREFHKPLVK	-0.136 ± 0.06
KRVEVKPYVLDDQMCDLCQGARCGGKFAPFFCANVTCLQYYCEFCWANIHSRAGREFHKPLVK	-0.117 ± 0.043
KRVEVKPYVLDDQMCDWCQGARCGGKFAPFFCANVTCLQYYCEFCWANIHSRAGREFHKPLVK	-0.25 ± 0.051
KRVEVKPYVLDDQMCDFCQGARCGGKFAPFFCANVTCLQYYCEFCWANIHSRAGREFHKPLVK	-0.458 ± 0.085
KRVEVKPYVLDDQMCDMCQGARCGGKFAPFFCANVTCLQYYCEFCWANIHSRAGREFHKPLVK	-0.188 ± 0.052
KRVEVKPYVLDDQMCDTCQGARCGGKFAPFFCANVTCLQYYCEFCWANIHSRAGREFHKPLVK	-0.22 ± 0.062
KRVEVKPYVLDDQMCDHCQGARCGGKFAPFFCANVTCLQYYCEFCWANIHSRAGREFHKPLVK	0.018 ± 0.086
KRVEVKPYVLDDQMCDGCQGARCGGKFAPFFCANVTCLQYYCEFCWANIHSRAGREFHKPLVK	-0.081 ± 0.042
KRVEVKPYVLDDQMCDRCQGARCGGKFAPFFCANVTCLQYYCEFCWANIHSRAGREFHKPLVK	-0.059 ± 0.035
KRVEVKPYVLDDQMCDVCQGARCGGKFAPFFCANVTCLQYYCEFCWANIHSRAGREFHKPLVK	-0.061 ± 0.039
KRVEVKPYVLDDQMCDSCQGARCGGKFAPFFCANVTCLQYYCEFCWANIHSRAGREFHKPLVK	-0.051 ± 0.042
KRVEVKPYVLDDQMCDECQIARCGGKFAPFFCANVTCLQYYCEFCWANIHSRAGREFHKPLVK	-0.841 ± 0.15
KRVEVKPYVLDDQMCDECQTARCGGKFAPFFCANVTCLQYYCEFCWANIHSRAGREFHKPLVK	-0.571 ± 0.072
KRVEVKPYVLDDQMCDECQPARCGGKFAPFFCANVTCLQYYCEFCWANIHSRAGREFHKPLVK	-0.688 ± 0.078
KRVEVKPYVLDDQMCDECQDARCGGKFAPFFCANVTCLQYYCEFCWANIHSRAGREFHKPLVK	-0.093 ± 0.08
KRVEVKPYVLDDQMCDECQKARCGGKFAPFFCANVTCLQYYCEFCWANIHSRAGREFHKPLVK	-0.403 ± 0.089
KRVEVKPYVLDDQMCDECQNARCGGKFAPFFCANVTCLQYYCEFCWANIHSRAGREFHKPLVK	-0.499 ± 0.092
KRVEVKPYVLDDQMCDECQRARCGGKFAPFFCANVTCLQYYCEFCWANIHSRAGREFHKPLVK	-0.522 ± 0.049

Variant	abundance fitness
KRVEVKPYVLDDQMCDECQQARCGGKFAPFFCANVTCLQYYCEFCWANIHSRAGREFHKPLVK	-0.582 ± 0.1
KRVEVKPYVLDDQMCDECQMARCGGKFAPFFCANVTCLQYYCEFCWANIHSRAGREFHKPLVK	-0.756 ± 0.1
KRVEVKPYVLDDQMCDECQSARCGGKFAPFFCANVTCLQYYCEFCWANIHSRAGREFHKPLVK	-0.363 ± 0.053
KRVEVKPYVLDDQMCDECQLARCGGKFAPFFCANVTCLQYYCEFCWANIHSRAGREFHKPLVK	-0.944 ± 0.076
KRVEVKPYVLDDQMCDECQCARCGGKFAPFFCANVTCLQYYCEFCWANIHSRAGREFHKPLVK	-0.503 ± 0.07
KRVEVKPYVLDDQMCDECQYARCGGKFAPFFCANVTCLQYYCEFCWANIHSRAGREFHKPLVK	-0.598 ± 0.11
KRVEVKPYVLDDQMCDECQAARCGGKFAPFFCANVTCLQYYCEFCWANIHSRAGREFHKPLVK	-0.501 ± 0.073
KRVEVKPYVLDDQMCDECQEARCGGKFAPFFCANVTCLQYYCEFCWANIHSRAGREFHKPLVK	-0.462 ± 0.074
KRVEVKPYVLDDQMCDECQVARCGGKFAPFFCANVTCLQYYCEFCWANIHSRAGREFHKPLVK	-0.418 ± 0.055
KRVEVKPYVLDDQMCDECQWARCGGKFAPFFCANVTCLQYYCEFCWANIHSRAGREFHKPLVK	-0.686 ± 0.078
KRVEVKPYVLDDQMCDECQHARCGGKFAPFFCANVTCLQYYCEFCWANIHSRAGREFHKPLVK	-0.509 ± 0.086
KRVEVKPYVLDDQMCDECQFARCGGKFAPFFCANVTCLQYYCEFCWANIHSRAGREFHKPLVK	-0.987 ± 0.12
KRVEVKPYVLDDQMCDECQGNRCGGKFAPFFCANVTCLQYYCEFCWANIHSRAGREFHKPLVK	-0.037 ± 0.08
KRVEVKPYVLDDQMCDECQGTRCGGKFAPFFCANVTCLQYYCEFCWANIHSRAGREFHKPLVK	-0.117 ± 0.053
KRVEVKPYVLDDQMCDECQGHRCGGKFAPFFCANVTCLQYYCEFCWANIHSRAGREFHKPLVK	-0.238 ± 0.077
KRVEVKPYVLDDQMCDECQGWRCGGKFAPFFCANVTCLQYYCEFCWANIHSRAGREFHKPLVK	-0.41 ± 0.069
KRVEVKPYVLDDQMCDECQGRRCGGKFAPFFCANVTCLQYYCEFCWANIHSRAGREFHKPLVK	-0.033 ± 0.034
KRVEVKPYVLDDQMCDECQGFRCGGKFAPFFCANVTCLQYYCEFCWANIHSRAGREFHKPLVK	-0.23 ± 0.081
KRVEVKPYVLDDQMCDECQGSRCGGKFAPFFCANVTCLQYYCEFCWANIHSRAGREFHKPLVK	-0.018 ± 0.04
KRVEVKPYVLDDQMCDECQGDRCGGKFAPFFCANVTCLQYYCEFCWANIHSRAGREFHKPLVK	-0.159 ± 0.068
KRVEVKPYVLDDQMCDECQGLRCGGKFAPFFCANVTCLQYYCEFCWANIHSRAGREFHKPLVK	-0.203 ± 0.04
KRVEVKPYVLDDQMCDECQGQRCGGKFAPFFCANVTCLQYYCEFCWANIHSRAGREFHKPLVK	-0.141 ± 0.073

Variant	abundance fitness
KRVEVKPYVLDDQMCDECQGMRCGGKFAPFFCANVTCLQYYCEFCWANIHSRAGREFHKPLVK	-0.22 ± 0.081
KRVEVKPYVLDDQMCDECQGIRCGGKFAPFFCANVTCLQYYCEFCWANIHSRAGREFHKPLVK	-0.217 ± 0.079
KRVEVKPYVLDDQMCDECQGVRCGGKFAPFFCANVTCLQYYCEFCWANIHSRAGREFHKPLVK	-0.098 ± 0.041
KRVEVKPYVLDDQMCDECQGYRCGGKFAPFFCANVTCLQYYCEFCWANIHSRAGREFHKPLVK	-0.32 ± 0.095
KRVEVKPYVLDDQMCDECQGPRCGGKFAPFFCANVTCLQYYCEFCWANIHSRAGREFHKPLVK	-0.52 ± 0.079
KRVEVKPYVLDDQMCDECQGCRCGGKFAPFFCANVTCLQYYCEFCWANIHSRAGREFHKPLVK	-0.447 ± 0.058
KRVEVKPYVLDDQMCDECQGERCGGKFAPFFCANVTCLQYYCEFCWANIHSRAGREFHKPLVK	-0.037 ± 0.063
KRVEVKPYVLDDQMCDEKQGARCGGKFAPFFCANVTCLQYYCEFCWANIHSRAGREFHKPLVK	-0.677 ± 0.077
KRVEVKPYVLDDQMCDEFQGARCGGKFAPFFCANVTCLQYYCEFCWANIHSRAGREFHKPLVK	-0.954 ± 0.15
KRVEVKPYVLDDQMCDENQGARCGGKFAPFFCANVTCLQYYCEFCWANIHSRAGREFHKPLVK	-0.748 ± 0.15
KRVEVKPYVLDDQMCDEWQGARCGGKFAPFFCANVTCLQYYCEFCWANIHSRAGREFHKPLVK	-1.07 ± 0.11
KRVEVKPYVLDDQMCDERQGARCGGKFAPFFCANVTCLQYYCEFCWANIHSRAGREFHKPLVK	-0.641 ± 0.05
KRVEVKPYVLDDQMCDETQGARCGGKFAPFFCANVTCLQYYCEFCWANIHSRAGREFHKPLVK	-0.643 ± 0.093
KRVEVKPYVLDDQMCDEIQGARCGGKFAPFFCANVTCLQYYCEFCWANIHSRAGREFHKPLVK	-1.05 ± 0.23
KRVEVKPYVLDDQMCDEHQGARCGGKFAPFFCANVTCLQYYCEFCWANIHSRAGREFHKPLVK	-1.01 ± 0.21
KRVEVKPYVLDDQMCDEAQGARCGGKFAPFFCANVTCLQYYCEFCWANIHSRAGREFHKPLVK	-0.674 ± 0.081
KRVEVKPYVLDDQMCDESQGARCGGKFAPFFCANVTCLQYYCEFCWANIHSRAGREFHKPLVK	-0.764 ± 0.057
KRVEVKPYVLDDQMCDEYQGARCGGKFAPFFCANVTCLQYYCEFCWANIHSRAGREFHKPLVK	-0.966 ± 0.15
KRVEVKPYVLDDQMCDEPQGARCGGKFAPFFCANVTCLQYYCEFCWANIHSRAGREFHKPLVK	-0.84 ± 0.092
KRVEVKPYVLDDQMCDEEQGARCGGKFAPFFCANVTCLQYYCEFCWANIHSRAGREFHKPLVK	-0.658 ± 0.12
KRVEVKPYVLDDQMCDELQGARCGGKFAPFFCANVTCLQYYCEFCWANIHSRAGREFHKPLVK	-0.966 ± 0.069
KRVEVKPYVLDDQMCDECQGAACGGKFAPFFCANVTCLQYYCEFCWANIHSRAGREFHKPLVK	-0.126 ± 0.045

Variant	abundance fitness
KRVEVKPYVLDDQMCDECQGACCGGKFAPFFCANVTCLQYYCEFCWANIHSRAGREFHKPLVK	-0.419 ± 0.23
KRVEVKPYVLDDQMCDECLGARCGGKFAPFFCANVTCLQYYCEFCWANIHSRAGREFHKPLVK	0.075 ± 0.034
KRVEVKPYVLDDQMCDECEGARCGGKFAPFFCANVTCLQYYCEFCWANIHSRAGREFHKPLVK	0.006 ± 0.046
KRVEVKPYVLDDQMCDECVGARCGGKFAPFFCANVTCLQYYCEFCWANIHSRAGREFHKPLVK	-0.093 ± 0.042
KRVEVKPYVLDDQMCDECIGARCGGKFAPFFCANVTCLQYYCEFCWANIHSRAGREFHKPLVK	-0.503 ± 0.13
KRVEVKPYVLDDQMCDECHGARCGGKFAPFFCANVTCLQYYCEFCWANIHSRAGREFHKPLVK	-0.134 ± 0.096
KRVEVKPYVLDDQMCDECTGARCGGKFAPFFCANVTCLQYYCEFCWANIHSRAGREFHKPLVK	-0.056 ± 0.048
KRVEVKPYVLDDQMCDECCGARCGGKFAPFFCANVTCLQYYCEFCWANIHSRAGREFHKPLVK	-0.22 ± 0.12
KRVEVKPYVLDDQMCDECMGARCGGKFAPFFCANVTCLQYYCEFCWANIHSRAGREFHKPLVK	-0.091 ± 0.055
KRVEVKPYVLDDQMCDECGGARCGGKFAPFFCANVTCLQYYCEFCWANIHSRAGREFHKPLVK	-0.036 ± 0.049
KRVEVKPYVLDDQMCDECDGARCGGKFAPFFCANVTCLQYYCEFCWANIHSRAGREFHKPLVK	-0.056 ± 0.076
KRVEVKPYVLDDQMCDECRGARCGGKFAPFFCANVTCLQYYCEFCWANIHSRAGREFHKPLVK	-0.015 ± 0.049
KRVEVKPYVLDDQMCDECSGARCGGKFAPFFCANVTCLQYYCEFCWANIHSRAGREFHKPLVK	-0.071 ± 0.029
KRVEVKPYVLDDQMCDECYGARCGGKFAPFFCANVTCLQYYCEFCWANIHSRAGREFHKPLVK	-0.224 ± 0.094
KRVEVKPYVLDDQMCDECFGARCGGKFAPFFCANVTCLQYYCEFCWANIHSRAGREFHKPLVK	-0.151 ± 0.069
KRVEVKPYVLDDQMCDECPGARCGGKFAPFFCANVTCLQYYCEFCWANIHSRAGREFHKPLVK	-0.579 ± 0.062
KRVEVKPYVLDDQMCDECAGARCGGKFAPFFCANVTCLQYYCEFCWANIHSRAGREFHKPLVK	-0.008 ± 0.045
KRVEVKPYVLDDQMCDECWGARCGGKFAPFFCANVTCLQYYCEFCWANIHSRAGREFHKPLVK	-0.295 ± 0.07
KRVEVKPYVLDDQMCDECNGARCGGKFAPFFCANVTCLQYYCEFCWANIHSRAGREFHKPLVK	-0.446 ± 0.25
